Measured values reported in patent US20090312236A1.

Target: human IGF-1 receptor (human) (UniProt P08069)
Test: competitive radioligand SPA, [125I]IGF-1, hIGF-1R membranes

Ki: > 0.075 µM
Substance: insulin lispro (ligand; other documents disagree on this pair)
